Data: patent US8846873B2, “Antibodies directed to GPNMB and uses thereof” (Celldex Therapeutics, Inc., priority 2004, dated 2014)

What was measured:
[1] = target: T1, GPNMB (Homo sapiens, UniProt Q14956); test: Binning of antibodies (Luminex competitive binding); conditions: three bins of six anti-GPNMB antibodies
T1 construct: made in house; host or cells: HEK 293
T1 sequence (Q14956 23-492): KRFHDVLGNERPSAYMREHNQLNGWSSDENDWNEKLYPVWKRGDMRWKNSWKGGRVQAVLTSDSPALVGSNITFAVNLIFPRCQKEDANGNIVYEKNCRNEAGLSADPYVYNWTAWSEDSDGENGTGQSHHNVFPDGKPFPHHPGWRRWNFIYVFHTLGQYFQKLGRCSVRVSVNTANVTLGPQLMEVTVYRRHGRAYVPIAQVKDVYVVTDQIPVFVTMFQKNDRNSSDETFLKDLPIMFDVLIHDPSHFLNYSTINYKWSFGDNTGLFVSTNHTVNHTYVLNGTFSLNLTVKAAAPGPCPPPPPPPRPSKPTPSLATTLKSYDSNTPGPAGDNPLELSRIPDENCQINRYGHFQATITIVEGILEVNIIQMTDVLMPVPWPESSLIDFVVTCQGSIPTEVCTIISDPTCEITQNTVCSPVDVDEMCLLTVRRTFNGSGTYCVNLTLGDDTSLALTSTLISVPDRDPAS
Method: Certain antibodies, described herein were binned in accordance with the protocol described in U.S. Patent Application Publication No. 20030157730. MxhIgG conjugated beads are prepared for coupling to primary antibody. The volume of supernatant needed is calculated using the following formula: (n+10)×50 μL (where n=total number of samples on plate). Where the concentration is known, 0.5 μg/mL is used. Bead stock is gently vortexed, then diluted in supernatant to a concentration of 2500 of each bead per well or 0.5×10^5/mL and incubated on a shaker in the dark at RT overnight, or 2 hours if at a known concentration of […]. Following aspiration, 50 μL of each bead is added to each well of filter plate, then washed once by adding 100 μL/well wash buffer and aspirating. Antigen and controls are added to filter plate 50 μL/well then covered and allowed to incubate in the dark for 1 hour on shaker. Following a wash step, a secondary unknown antibody is added at 50 μL/well using the same dilution (or concentration if known) as is used for the primary antibody. The plates are then incubated in the dark for 2 hours at RT on shaker followed by a wash step. Next, 50 μL/well biotinylated mxhIgG diluted 1:500 is added and allowed to incubate in the dark for 1 hour on shaker at RT. […]

[2] = system: TK10; test: Anti GPNMB antibody mediated indirect cell killing (saporin secondary antibody-toxin conjugate, colony count); format: cell-based; conditions: primary antibody 50 ng/mL plus goat anti-human IgG-saporin 100 ng/well
Method: UACC-62, a GPNMB antigen expressing cell line, and TK10, a non-expressing cell line were plated onto flat bottom 96-well tissue culture plates (Becton Dickinson, Franklin Lakes, N.J., USA) at a density of 3000 cells per well. Once the cells reached ˜25% confluency, 100 ng/well of secondary antibody-toxin conjugate (goat anti-human IgG-saporin; Advanced Targeting Systems, San Diego, USA, HUM-ZAP; cat. # IT-22) was added. Anti-GPNMB MAbs 2.10.2, 2.22.1, 1.15.1 or isotype control mAb (pK16.3) were added to each well at a final concentration of 10 or 50 ng/mL. An anti-EGFR monoclonal antibody (MS-269-PABX, NeoMarkers, Fremont, Calif., USA) was used as a positive primary antibody control. Chemotherapy reagent 5-FU at 600 uM was used as a positive reagent control. On day 5, the cells were trypsinized, transferred to 6-well tissue culture plates and incubated at 37° C. Plates were examined daily and between 8-10 days, all plates were Giemsa stained and colonies were counted.

[3] = system: melanoma cell lines; test: Clonogenic assay with 1.15.1-AE; format: cell-based, human; conditions: various concentrations
Method: Melanoma cell lines were plated onto flat bottom 96-well tissue culture plates (Becton Dickinson, Franklin Lakes, N.J., USA). On day 2 or when cells reach ˜25% confluency, various concentrations of unconjugated and Auristatin E-conjugated 1.15.1 were added to cells. MAb 2.6.2-AE was also used as a conjugated isotype control in this study. On day 5, the cells were trypsinized, transferred to 6-well tissue culture plates and incubated at 37° C. Plates were examined daily. On days 8-10, all plates were Giemsa stained and colonies on the plates were counted.

[4] = system: TK-10 cells; test: Cell cycle analysis (BrdU / propidium iodide flow cytometry); format: cell-based, human; conditions: TK-10, 24 hour, 1000 ng/mL
Method: (§1) Briefly, cells were pulsed at the indicated times with 30 μM of bromodeoxyuridine (BrdU, Sigma) for 30 min, harvested, fixed and permeabilized in methanol. Nascent DNA synthesis was detected by anti-bromodeoxyuridine-FITC (BD Biosciences, San Jose, Calif.) staining. Total DNA content was detected using propidium iodide (PI, Sigma). For apoptosis analysis, cells were treated as above and labeled with Annexin V-FITC followed by propidium iodide exclusion using the Annexin V-FITC Apoptosis Detection kit I (BD PharMingen, San Diego, Calif.) according to the manufacturer's protocols. Flow cytometry (as described in the previous Example) was used to assay both cell cycle and apoptosis studies.
DNA synthesis and cell cycle progression were determined by flow cytometry (Table 52).

[5] = system: SK-Mel-2 cells; test: Apoptosis analysis (Annexin V-FITC / propidium iodide); format: cell-based, human; conditions: SK-Mel-2, 48 hour, 1000 ng/mL
Method: as §1
(§2) To investigate this possibility, analysis of apoptosis using Annexin-V surface binding and loss of propidium iodide (PI) exclusion was performed.

[6] = system: TK-10 cells; test: as above; format: cell-based, human; conditions: TK-10, 48 hour, 1000 ng/mL
Method: as §1, §2

[7] = system: SF-268; test: Flow cytometry (FACS) of CR011 surface staining; format: binding, human
Method: (§3) Flow Cytometry: Quantitative analysis of CG56972 expression on the surface of cell lines was determined by flow cytometry (FACS). […] Cells were fixed in 1% paraformaldehyde/PBS and examined on a Becton Dickinson FACSCalibur flow cytometer. Data analysis was performed with Becton Dickinson Cell Quest software version 3.3 and the geometric mean fluorescence intensity ratio (GMR) was determined for each cell type.

[8] = system: SF-539; test: Flow cytometry (FACS) of CR011 surface staining; format: binding, human
Method: as §3

[9] = system: SNB-78; test: Flow cytometry (FACS) of CR011 surface staining; format: binding, human
Method: as §3

[10] = system: U-118-MG; test: Flow cytometry (FACS) of CR011 surface staining; format: binding, human
Method: as §3

[11] = system: XF-498; test: Flow cytometry (FACS) of CR011 surface staining; format: binding, human
Method: as §3

B1: Mab1.15.1 (protein, listed as Homo sapiens)
chain: QVQLQESGPGLVKPSQTLSLTCTVSGGSISSFNYYWSWIRHHPGKGLEWIGYIYYSGSTYSNPSLKSRVTISVDTSKNQFSLTLSSVTAADTAVYYCARGYNWNYFDYWGQGTLVTVSSA
- Bin [1]: Bin 2
- cell death in GPNMB negative TK10 cells [2]: less than 24%
- effect on growth of all the melanoma cell lines tested [3]: no effect on growth
- % G1 [4]: 42.0%
- % G2/M [4]: 6.3%
- % S-phase [4]: 39.8%
- % Sub-G1 [4]: 0.3%
- % AnnV+/PI+ UR [5]: 0.45%
- % AnnV+/PI− LR [5]: 4.74%
- % AnnV−/PI+ UL [5]: 0.36%
- % AnnV+/PI+ UR [6]: 0.34%
- % AnnV+/PI− LR [6]: 0.55%
- % AnnV−/PI+ UL [6]: 0.83%
- surface staining above control mAb background [7]: around 1.5 fold
- surface staining above isotype control mAb background [8]: at least 1.5 fold
- surface staining above isotype control mAb background [9]: at least 1.5 fold
- surface staining above isotype control mAb background [10]: at least 1.5 fold
- surface staining above isotype control mAb background [11]: at least 1.5 fold
